Measured values taken from patent US7479478B2, “Human parathyroid hormone modifications, preparation and use” (The General Hospital Corporation, priority 1998, dated 2009).
pEC50, pIC50: −log10 of the molar value. Entries after “also recorded” stand apart in the source; their conditions may differ. One block for each substance: values may come before it. No end group written: not given here.

How the values were obtained:
human PTH-1 receptors [1] = biological target: T1, human PTH-1 receptors (Homo sapiens, UniProt Q03431); test: PLC activation (IP3 formation) in HKRK B7 cells; type: cell-based; details: for pEC50: read-out: EC50 for PLC activation (IP3 formation); for IP3 Formation (% Maximum): % of maximal response to hPTH-(1-34); for PLC activation (IP3 formation), result in words: up to 1000 nM or 10 μM; for PLC activation, percent of basal: 1000 nM peptide
T1 construct: expressed in transfected cells
T1 sequence (Q03431 27-593): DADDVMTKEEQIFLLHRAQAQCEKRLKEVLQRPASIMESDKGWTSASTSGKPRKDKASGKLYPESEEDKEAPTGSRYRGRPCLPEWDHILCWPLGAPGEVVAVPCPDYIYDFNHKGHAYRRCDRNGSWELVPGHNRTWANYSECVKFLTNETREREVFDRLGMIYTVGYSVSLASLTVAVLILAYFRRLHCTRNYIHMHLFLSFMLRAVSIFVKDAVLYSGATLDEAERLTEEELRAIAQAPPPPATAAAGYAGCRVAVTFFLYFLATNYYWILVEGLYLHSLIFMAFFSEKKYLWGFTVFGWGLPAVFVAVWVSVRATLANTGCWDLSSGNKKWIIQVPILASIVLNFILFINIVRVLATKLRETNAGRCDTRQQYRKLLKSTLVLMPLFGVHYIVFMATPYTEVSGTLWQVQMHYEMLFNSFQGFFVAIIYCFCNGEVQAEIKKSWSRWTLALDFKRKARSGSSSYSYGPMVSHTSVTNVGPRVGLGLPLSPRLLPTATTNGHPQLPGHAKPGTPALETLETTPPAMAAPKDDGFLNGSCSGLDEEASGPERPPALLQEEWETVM
Experimental: (§1) HKRK B7 or EW5 cells (32), subclones of LLC-PKI renal epithelial cells that stably express human or rat PTH-1 receptors (950,000 and 320,000 receptors/cell, respectively), were maintained under 5% CO2 in air in Dulbecco's modified essential medium containing 7% fetal bovine serum (FBS) and 1% penicillin/streptomycin (GIBCO-BRL, Grand Island, N.Y.). HEK-293 and COS-7 cells were cultured similarly, except that 10% FBS was used in the medium. Cells were seeded into 24-well plates two days before assay at a density of 2-2.5×10^5 cells/well (HKRK B7 or EW 5 cells) or 6×10^5 cells/well (in 6-well plates) (HEK-293 cells). In experiments involving HEK-293 cells, DNA transfections were performed 24 hr after plating and inositol radiolabel was added 24 hr thereafter (see below). COS-7 cell transfections were performed as previously described (Gardella, T. J., et al., Endocrinology 132(5):2024-2030 (1993))
PLC was activated by PTH agonists in the presence of 30 mM LiCl at 37° C. for 30 min after 16 hr of labeling with [^3H]myo-inositol (3 uCi/ml) in serum-free medium containing 0.1% bovine serum albumin. The reactions were stopped by rapid aspiration and addition of cold 5% TCA. Water-soluble radiolabeled inositol trisphosphate (IP3) was isolated after ether extraction by ion-exchange chromatography (Guo, J., et al., Endocrinology 136(9):3884-3891 (1995)). In experiments involving HEK 293 cells, cells previously transfected with human PTHR cDNA (in the pcDNA1 expression vector HKRK) using Lipofectamine (Gibco BRL) were labeled with [^3H]myo-inositol and assayed as described above, except that total water-soluble [^3H]inositol polyphosphates were collected as a single fraction from the ion-exchange columns.

human PTH-1 receptors [2] = biological target: T1, human PTH-1 receptors; test: Intracellular cAMP accumulation (adenylyl cyclase, AC, activation) in HKRK B7 cells; type: cell-based; details: for Cyclic AMP accumulation (% Maximum): % of maximal response to hPTH-(1-34), HKRK B7; for AC activation (cAMP accumulation), result in words: HKRK B7 cells, compared with hPTH-(1-34) or parent peptide
Experimental: as §1, with “(1993)) Intracellular cAMP accumulation, PLC activation and PTHR binding affinity were measured as previously reported (Bringhurst, F. R., et al., Endocrinology 132(5):2090-2098 (1993); Guo, J., et al., Endocrinology 136(9):3884-3891 (1995)). Intracellular cAMP accumulation was measured in extracts of cells that were exposed to human PTH peptides in the presence of isobutylmethyxanthine (IBMX, 1 mM) at 37° C. for 15 min. After terminating the reactions by aspiration and freezing in liquid nitrogen, cell monolayers were extracted with 50 mM HCl and cAMP was measured using a radioimmunoassay kit (Dupont-New England Nuclear, Boston, Mass.).” for “(1993))”

human PTH-1 receptors [3] = biological target: T1, human PTH-1 receptors; test: Radioligand competition binding with 125I-[Nle8,21,Tyr34]rat PTH-(1-34) in HKRK B7 cells
Experimental: as §1, with “(1993)) Radioligand competition binding assays were performed at 2-8° C. for 6 hr using ^125I-[Nle^8,21,[…]]rat PTH-(1-34) (100,000 cpm/well) in the presence or absence of non-radioactive hPTH-(1-34) analogs. Cell layers were washed three times before solubilization for determination of cell-associated radioactivity.” for “(1993))”

Substance: AVSEIQLMHNLGKHLNSMERVEWLRKKL-NH2 [[Ala^1]hPTH-(1-28)]
pEC50 (human PTH-1 receptors [1]; HKRK B7 cells): 6.00

Substance: AVSEIQLMHNLGKHLNSMRRVEWLRKK [[Ala^1,Arg^19]hPTH-(1-27)]
Cyclic AMP accumulation (% Maximum) (human PTH-1 receptors [2]; 0.01 nM): −0.2 ± 0.1 % Maximum
Cyclic AMP accumulation (% Maximum) (human PTH-1 receptors [2]; 0.1 nM): 0.6 ± 0.3 % Maximum
Cyclic AMP accumulation (% Maximum) (human PTH-1 receptors [2]; 1 nM): 7 ± 0.6 % Maximum
Cyclic AMP accumulation (% Maximum) (human PTH-1 receptors [2]; 10 nM): 50 ± 5.1 % Maximum
Cyclic AMP accumulation (% Maximum) (human PTH-1 receptors [2]; 100 nM): 92 ± 15 % Maximum
Cyclic AMP accumulation (% Maximum) (human PTH-1 receptors [2]; 1000 nM): 99 ± 8.8 % Maximum
IP3 Formation (% Maximum) (human PTH-1 receptors [1]; 1000 nM, HKRK B7): 1.5 ± 4.8 % Maximum
IP3 Formation (% Maximum) (human PTH-1 receptors [1]; 10000 nM, HKRK B7): 6.9 ± 10 % Maximum

Substance: AVSEIQLMHNLGKHLNSMRRVEWLRKKL-NH2 [[Ala^1,Arg^19]hPTH-(1-28)]
AC activation (cAMP accumulation), result in words (human PTH-1 receptors [2]): indistinguishable from that of hPTH-(1-34)
pEC50 (human PTH-1 receptors [1]; HKRK B7 cells): 6.70
fold improvement of EC50 for PLC activation by the Arg^19 modification (human PTH-1 receptors [1]; over [Ala^1]hPTH-(1-28), HKRK B7): 5 fold

Substance: GlyValSerGluIleGInLeuMetHisAsnLeuGlyLysHisLeuAsnSerMetGluArgVal GluTrpLeuArgLysLysLeu (GVSEIQLMHNLGKHLNSMERVEWLRKKL; listed as Homo sapiens) [[Gly^1]hPTH-(1-28)]
binding affinity, result in words (human PTH-1 receptors [3]): modestly impaired
PLC activation (IP3 formation), result in words (human PTH-1 receptors [1]; HKRK B7 cells): selectively eliminated PLC signaling, apart from a weak response at 10 μM

Substance: SVSEIQLMHNLGKHLNSMRRVEWLRKKL-NH2 [[Arg^19]hPTH-(1-28)]
AC activation (cAMP accumulation), result in words (human PTH-1 receptors [2]): unaffected
pIC50 (human PTH-1 receptors [3]; read-out: apparent IC50 for binding): 7.00
pEC50 (human PTH-1 receptors [1]; HKRK B7 cells): 6.52
PLC activation (IP3 formation), result in words (human PTH-1 receptors [1]; HKRK B7 cells): maximally activated

Substance: [Ala^1]hPTH-(1-34): hPTH-(1-34) with Ala^1 for Ser^1 [reference compound]
AC activation (cAMP accumulation), result in words (human PTH-1 receptors [2]): indistinguishable from hPTH-(1-34)
binding affinity, result in words (human PTH-1 receptors [3]): indistinguishable from hPTH-(1-34)
PLC activation (IP3 formation), result in words (human PTH-1 receptors [1]; HKRK B7 cells): indistinguishable from hPTH-(1-34)

Substance: [Gly^1]hPTH-(1-34): hPTH-(1-34) with Gly^1 for Ser^1 [reference compound]
AC activation (cAMP accumulation), result in words (human PTH-1 receptors [2]): unchanged
binding affinity, result in words (human PTH-1 receptors [3]): unchanged
PLC activity as % of the hPTH-(1-34) maximum (human PTH-1 receptors [1]; 1000 nM, highest concentration tested, HKRK B7 cells): 25%

Substance: [Tyr^0]hPTH-(1-34): hPTH-(1-34) with a tyrosine residue interposed at the N-terminus; purchased from Sigma (YSVSEIQLMHNLGKHLNSMERVEWLRKKLQDVHNF) [reference compound]
PLC activation, percent of basal (human PTH-1 receptors [1]; HKRK B7 cells): 105±5% of basal

Substance: hPTH-(1-24): C-truncated human PTH peptide (SVSEIQLMHNLGKHLNSMERVEWL)
AC activation (cAMP accumulation), result in words (human PTH-1 receptors [2]): only minimally active

The next lines start with results.

PLC activation, percent of basal (human PTH-1 receptors [1]; HKRK B7 cells): 101±6% of basal
Substance: desamino-hPTHrP(1-36): hPTHrP(1-36) with the α-amino group removed [reference compound]

AC activation (cAMP accumulation), result in words (human PTH-1 receptors [2]): nearly identical
Substance: hPTH-(1-25): C-truncated human PTH peptide (SVSEIQLMHNLGKHLNSMERVEWLR)

PLC activation (IP3 formation), result in words (human PTH-1 receptors [1]; HKRK B7 cells): did not elicit PLC activity
Substance: hPTH-(2-34): hPTH-(1-34) lacking residue 1 (VSEIQLMHNLGKHLNSMERVEWLRKKLQDVHNY) [reference compound]
AC activation (cAMP accumulation), result in words (human PTH-1 receptors [2]): comparable in magnitude and sensitivity to that of hPTH-(1-34); also recorded: equipotent with hPTH-(1-34)

PLC activation, percent of basal (human PTH-1 receptors [1]; HKRK B7 cells): 178±12% of basal
Substance: hPTHrP(1-36): human PTH-related peptide fragment 1-36 [reference compound]
